# Experimental data from the supplement of paper PMC10266784.
# B1: library; numbered along this chain (parent)
# chain: MAAAAAAAAEQQSSNGPVKKSMREKAVERRSVNKEHNSNFKAGYIPIDEDRLHKTGLRGRKGNLAICVIILLFILAVINLIITLVIWAVIRIGPNGCDSMEFHESGLLRFKQVSDMGVIHPLYKSTVGGRRNENLVITGNNQPIVFQQGTTKLSVENNKTSITSDIGMQFFDPRTQNILFSTDYETHEFHLPSGVKSLNVQKASTERITSNATSDLNIKVDGRAIVRGNEGVFIMGKTIEFHMGGNMELKAENSIILNGSVMVSTTRLPSSSSGDQLGSGDWVRYKLCMCADGTLFKVQVTSQNMGCQISDNPCGNTH
# Variants of: B1
# Assay: SGCB cell-surface expression functional score (HA stain, bin4 vs bin1, normalised to synonymous) (log10 ratio); higher = more cell-surface SGCB (functional)
# Description: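 Deep mutational scan of full-length human SGCB (YFP-SGCB-HA, NNN codon sublibraries A-F) delivered by lentivirus at low MOI into ADG-HEK293 cells stably expressing SGCA, SGCD and SGCG. YFP-positive cells were stained for surface HA on unpermeabilized cells and FACS-sorted into bins. The functional score is log10(frequency in high bin 4 / frequency in low bin 1), normalised per chunk so that synonymous variants have mean 0 and SD 0.5. Scores are the median over codons and over duplicate biological replicates; scores below -0.5 are called non-functional. Scale: negative means deleterious.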
row,Variant,SGCB cell-surface expression functional score (log10)
1,MAAAAAAAAEQQSSNGPVKKSMREKAVERRSVNKEHNSNFKAGYIPIDEDRLHKTGLRGRKGNLAICVIILLFILAVINLIITLVIWAVIRIGPNGCDSMEFHESGLLRFKQVSDMGVIHPLYKSTVGGRRNENLVITGNNQPIVFQQGTTKLSVENNKTSITSDIGMQFFDPRTQNILFSTDYETHEFHLPSGVKSLNVQKASTERITSNATSDLNIKVDGRAIVRGNEGVFIMGKTIEFHMGGNMELKAENSIILNGSVMVSTTRLPSSSSGDQLGSGDWVRYKLCMCADGTLFKVQVTSQNMGCQYSDNPCGNTH [I309Y],-0.22
2,MAAAAAAAAEQQSSNGPVKKSMREKAVERRSVNKEHNSNFKAGYIPIDEDRLHKTGLRGRKGNLAICVIILLFILAVINLIITLVIWAVIRIGPNGCDSMEFHESGLLRFKQVSDMGVIHPLYKSTVGGRRNENLVITGNNQPIVFQQGTTKLSVENNKTSITSDIGMQFFDPRTQNILFSTDYETHEFHLPSGVKSLNVQKASTERITSNATSDLNIKVTGRAIVRGNEGVFIMGKTIEFHMGGNMELKAENSIILNGSVMVSTTRLPSSSSGDQLGSGDWVRYKLCMCADGTLFKVQVTSQNMGCQISDNPCGNTH [D221T],0.96
3,MPAAAAAAAEQQSSNGPVKKSMREKAVERRSVNKEHNSNFKAGYIPIDEDRLHKTGLRGRKGNLAICVIILLFILAVINLIITLVIWAVIRIGPNGCDSMEFHESGLLRFKQVSDMGVIHPLYKSTVGGRRNENLVITGNNQPIVFQQGTTKLSVENNKTSITSDIGMQFFDPRTQNILFSTDYETHEFHLPSGVKSLNVQKASTERITSNATSDLNIKVDGRAIVRGNEGVFIMGKTIEFHMGGNMELKAENSIILNGSVMVSTTRLPSSSSGDQLGSGDWVRYKLCMCADGTLFKVQVTSQNMGCQISDNPCGNTH [A2P],0.24
4,MAAAAAAAAEQQSSNGPVKKSMREKAVERRSVNKEHNSNFKAGYIPIDEDRLHKTGLRGRKGNLAICVIILLFILAVINLIITLVIWAVIRIGPNGCDSMEFHESGLLRFKQVSDMGVIHPLYKSTVGGRRNENLVITGNNQPIVFQQGTTKLSVENNKTSITSDIGMQFFDPRTQNILFSTDYETHEFHLPSGVKSLNVQKASTERITSNATSDLNIKVDGRAIVRGNEGVFIMGKTIEFHMGGNMELKAENSIILNGSVMVSTTRLPSSSSGDQLGSGDWVRYKLCMCADGTLFKVQVTSQNMGCQISDNACGNTH [P313A],0.41
5,MAAAAAAAAEQQSSNGPVKKSMREKAVERRSVNKEHNSNFKAGYIPIDEDRLHKTGLRGRKGNLAICVIILLFILAVIPLIITLVIWAVIRIGPNGCDSMEFHESGLLRFKQVSDMGVIHPLYKSTVGGRRNENLVITGNNQPIVFQQGTTKLSVENNKTSITSDIGMQFFDPRTQNILFSTDYETHEFHLPSGVKSLNVQKASTERITSNATSDLNIKVDGRAIVRGNEGVFIMGKTIEFHMGGNMELKAENSIILNGSVMVSTTRLPSSSSGDQLGSGDWVRYKLCMCADGTLFKVQVTSQNMGCQISDNPCGNTH [N79P],0
6,MAAAAAAAAEQQSSNGPVKKSMREKAVERRSVNKEHNSNFKAGYIPIDEDRLHKTGLRGRKGNLAICVIILLFILAVINLIITLVIWAVIRIGPNGCDSMEFHDSGLLRFKQVSDMGVIHPLYKSTVGGRRNENLVITGNNQPIVFQQGTTKLSVENNKTSITSDIGMQFFDPRTQNILFSTDYETHEFHLPSGVKSLNVQKASTERITSNATSDLNIKVDGRAIVRGNEGVFIMGKTIEFHMGGNMELKAENSIILNGSVMVSTTRLPSSSSGDQLGSGDWVRYKLCMCADGTLFKVQVTSQNMGCQISDNPCGNTH [E104D],0.17
7,MAAAAAAAAEQQSSNGPVKKSMREKAVERRSVNKEHNSNFKAGYIPIDEDRLHKTGLRGRKGNLAICVIILLFILAVINLIITLVIWAVIRIGPNGCDSMEFHESGLLRFKQVSDMGVIHPLYKSTVGGRRNENLVITGNNQPIVFQQGTTKLSVENNKTSITSDIGMQFFDPRTQNILFSTDYETHEFHLPSGVKSLNVQKASTERITSNATSDLNIKVDGRAIVRENEGVFIMGKTIEFHMGGNMELKAENSIILNGSVMVSTTRLPSSSSGDQLGSGDWVRYKLCMCADGTLFKVQVTSQNMGCQISDNPCGNTH [G228E],-0.84
8,MAAAAAAAAEQQSSNGPVKKSMREKAVERRSVNKEHNSNFKAGYIPIDEDRLHKTGLRGRKGNLAPCVIILLFILAVINLIITLVIWAVIRIGPNGCDSMEFHESGLLRFKQVSDMGVIHPLYKSTVGGRRNENLVITGNNQPIVFQQGTTKLSVENNKTSITSDIGMQFFDPRTQNILFSTDYETHEFHLPSGVKSLNVQKASTERITSNATSDLNIKVDGRAIVRGNEGVFIMGKTIEFHMGGNMELKAENSIILNGSVMVSTTRLPSSSSGDQLGSGDWVRYKLCMCADGTLFKVQVTSQNMGCQISDNPCGNTH [I66P],-0.35
9,MAAAAAAAAEQQSSNGPVKKSMREKAVERRSVNKEHNSNFKAGYIPIDEDRLHKTGLRGRKGNLAICVIILLFILAVINLIITLVIWAVIRIGPNGCDSMEFHESGLLRFKQVSDMGVIHPLYKSTVGGRRNENLVITGNNQPIVFQQGTTKLSVENNKTSITSDIGMQFFDPRTQNILFSTDYETHEFHLPSGVKSLNVQKASTERITSNATSDLNIKVDGRAIVRGNRGVFIMGKTIEFHMGGNMELKAENSIILNGSVMVSTTRLPSSSSGDQLGSGDWVRYKLCMCADGTLFKVQVTSQNMGCQISDNPCGNTH [E230R],0.28
10,MAAAAAAAAEQQSSNGPVKKSMREKAVERRSVNKEHNSNFKAGYIPIDEDRLHKTGLRGRKGNLAICVIILLFILAVINLIITLVIWAVIRIGPNGCDSMEFHESGLLRFKQVSDMGVIHPLYKSTVGGRRNENLVITGNNQPIVFQQGTTKLSVENNKTSITSDIGMQFFDPRTQNILFSTDYETHEFHLPSGVKSLNVQKASTERITSNATSDLNIKVDGRAIVRGNEGVFIMGKTIEFHMGGNMELKAENSIILNGSVMVSTTRLPSSSSGDQLGSGDWVRYKLVMCADGTLFKVQVTSQNMGCQISDNPCGNTH [C288V],-0.72
